Measurements: US20260234285A1 (University of Texas, published 2026)
Where a chain is given by its changes, count along the chain named.

T1: human PD-L2 protein (monomeric, soluble analyte) (human, UniProt Q9BQ51 20-220)
T1 construct: Recombinant human PD-L2 protein used as analyte on Octet or Biacore; a soluble form would lack the transmembrane part; also called monomeric PD-L2; monomeric human ligand
T1 sequence: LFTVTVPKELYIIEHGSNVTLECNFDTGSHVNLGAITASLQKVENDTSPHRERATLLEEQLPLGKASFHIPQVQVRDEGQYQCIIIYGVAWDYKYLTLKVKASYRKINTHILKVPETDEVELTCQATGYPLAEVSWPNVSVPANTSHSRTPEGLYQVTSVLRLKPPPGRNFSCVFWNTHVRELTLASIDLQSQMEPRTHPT

T2: human PD-L2 (PDCD1LG2) expressed on cells (human, UniProt Q9BQ51 20-273)
T2 sequence: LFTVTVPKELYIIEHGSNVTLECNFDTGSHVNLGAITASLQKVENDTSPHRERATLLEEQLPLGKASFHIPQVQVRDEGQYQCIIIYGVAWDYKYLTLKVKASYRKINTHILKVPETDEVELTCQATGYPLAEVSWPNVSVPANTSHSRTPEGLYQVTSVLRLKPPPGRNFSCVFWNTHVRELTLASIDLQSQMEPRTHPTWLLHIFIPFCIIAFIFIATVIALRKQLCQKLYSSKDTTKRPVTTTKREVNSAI

T3: mPD-L2 dimer (Mus musculus, UniProt Q9WUL5)
T3 construct: also called mouse PD-L2 protein
T3 sequence (PD-L2 chain, looked up): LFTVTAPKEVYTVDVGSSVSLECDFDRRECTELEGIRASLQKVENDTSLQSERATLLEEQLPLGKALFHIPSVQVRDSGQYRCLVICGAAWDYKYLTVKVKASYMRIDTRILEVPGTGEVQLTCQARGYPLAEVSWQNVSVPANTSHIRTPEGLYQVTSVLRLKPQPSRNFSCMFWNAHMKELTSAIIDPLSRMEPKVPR

T4: Human PD-L2-Fc (Homo sapiens, UniProt Q9BQ51)
T4 construct: Antigen in Octet IgG KD Human PD-L2-Fc (M) Avid
T4 sequence (PD-L2-Fc fusion chain, looked up): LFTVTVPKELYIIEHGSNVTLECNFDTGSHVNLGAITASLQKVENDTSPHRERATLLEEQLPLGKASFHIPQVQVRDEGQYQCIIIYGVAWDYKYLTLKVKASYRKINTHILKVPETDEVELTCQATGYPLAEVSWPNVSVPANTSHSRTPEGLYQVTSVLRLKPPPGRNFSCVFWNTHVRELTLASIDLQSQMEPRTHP

B1: ADI-38002 (antibody, human IgG1, kappa, V domains shown)
VH: QVQLQQWGAGLLKPSETLSLTCAVYGGSLSGYPWSWIRQPPGKGLEWIGETDVSGWTDYNPSLKSRVTISVDTSKNQFSLKLSSVTAADTAVYYCARDGRRMGTPSFDIWGQGTMVTVSS
VL: DIQMTQSPSSVSASVGDRVTITCRASQDINSFLAWYQQKPGKAPKLLIYAASSLNSGVPSRFSGSGSGTDFTLTISSLQPEDFATYYCQKSVYFPPTFGGGTKVEIKR
notes: Human IgG1 (GASDIE); Some in vivo work used a mouse IgG2a form; also called Ab-38002; test antibody 38002
B2: ADI-38003 (antibody, V domains shown)
VH: B1 VH
VL: B1 VL with Q27K, D28G, N30S, S91A
B3: ADI-38004 (antibody, V domains shown)
VH: B1 VH
VL: B1 VL with D28G, N30S, K90S, S91A
B4: ADI-37464 (antibody, V domains shown)
VH: B1 VH
VL: B1 VL with D28G, S91A

Assays:
[1] = target: T5, human PD-L1 protein (monomeric, soluble analyte) (human, UniProt Q9NZQ7 19-238); experiment: Octet, monomeric human ligand
T5 construct: Recombinant human PD-L1 protein used as analyte on Octet or Biacore; also called monomeric PD-L1; monomeric human ligand
T5 sequence (Q9NZQ7 19-238 limits assumed): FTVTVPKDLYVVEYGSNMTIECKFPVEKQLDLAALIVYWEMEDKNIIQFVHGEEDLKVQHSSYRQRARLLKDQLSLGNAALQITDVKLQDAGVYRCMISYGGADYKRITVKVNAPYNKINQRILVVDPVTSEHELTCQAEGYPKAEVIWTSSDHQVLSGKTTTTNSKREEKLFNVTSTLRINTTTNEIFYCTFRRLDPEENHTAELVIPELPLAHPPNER

[2] = target: T1, human PD-L2 protein (monomeric, soluble …); experiment: Octet, monomeric human ligand
[3] = target: T2, human PD-L2 (PDCD1LG2) expressed on …; experiment: cell-based or functional assay
[4] = target: T6, INSR isoform long, over-expressed on HEK293 cells (human, UniProt P06213 28-1382); experiment: flow cytometry on live transfected HEK293 cells, dose range 0-300 µg/mL
T6 construct: whole, on cells; Long isoform of the UniProt entry; also called INSR long isoform
Experimental: (§1) Human HEK293 cells were transfected with expression vectors encoding ZsGreen1 only, or ZsGreen1 and CD274 (PD-L1), PDCD1LG2 (PD-L2), INSR isoform long, INSR Isoform short or CD20 (assay control). […] Cells were washed, and incubated with the same AF647 anti-human IgG Fc detection antibody as used in the cell microarray screens. Cells were again washed, and analyzed by flow cytometry using an Accuri flow cytometer (BD). A 7AAD live/dead dye was used to exclude dead cells in the analysis, and ZsGreen+ (transfected) cells were selected for analysis.
(§2) Interactions were then investigated by flow cytometry.

[5] = target: T2, human PD-L2 (PDCD1LG2) expressed on …; experiment: as above
Experimental: as §1, §2

[6] = target: T7, human PD-L1 (CD274) expressed on cells (human, UniProt Q9NZQ7 19-290); experiment: as above
T7 construct: also called CD274 (PD-L1); PD-L1 CHO cells
T7 sequence (Q9NZQ7 19-290 limits assumed): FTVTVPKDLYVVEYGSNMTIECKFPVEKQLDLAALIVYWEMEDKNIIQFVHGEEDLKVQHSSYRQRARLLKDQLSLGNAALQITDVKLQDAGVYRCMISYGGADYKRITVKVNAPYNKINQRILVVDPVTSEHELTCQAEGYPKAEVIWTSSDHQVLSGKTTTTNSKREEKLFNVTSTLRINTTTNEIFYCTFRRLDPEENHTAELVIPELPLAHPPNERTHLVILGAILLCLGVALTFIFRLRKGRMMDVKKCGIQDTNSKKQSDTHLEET
Experimental: as §1, §2

mPD-L2 dimer = target: T3, mPD-L2 dimer; experiment: Octet, column mPD-L2 dimer; unit Molar from the legend
Experimental: (§3) Antibody Characterization. Antibody candidates generated from yeast-surface display screening were tested for the capacity to bind to PD-L1 or PD-L2.

mPD-L1 dimer = target: T8, mPD-L1 dimer (Mus musculus, UniProt Q9EP73); experiment: Octet, column mPD-L1 dimer; unit Molar from the legend
T8 construct: also called mouse PD-L1 protein
T8 sequence (Q9EP73 19-238 limits assumed): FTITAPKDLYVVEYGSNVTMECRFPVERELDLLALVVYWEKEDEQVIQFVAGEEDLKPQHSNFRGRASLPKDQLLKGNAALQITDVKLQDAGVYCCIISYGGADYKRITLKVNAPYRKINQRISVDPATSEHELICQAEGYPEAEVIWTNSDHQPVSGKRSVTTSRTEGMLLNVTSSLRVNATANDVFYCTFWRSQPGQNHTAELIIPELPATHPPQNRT
Experimental: as §3

Human PD-L2-Fc [7] = target: T4, Human PD-L2-Fc; experiment: Octet, column hPD-L2 dimer; unit Molar from the legend
[8] = target: T7, human PD-L1 (CD274) expressed on cells; experiment: cell-based or functional assay
Human PD-L1-Fc [9] = target: T9, Human PD-L1-Fc (Homo sapiens, UniProt Q9NZQ7); experiment: Octet, IgG KD, avid format, human PD-L1-Fc
T9 construct: Antigen in Octet IgG KD Human PD-L1-Fc (M) Avid
T9 sequence (Q9NZQ7 19-239 limits assumed): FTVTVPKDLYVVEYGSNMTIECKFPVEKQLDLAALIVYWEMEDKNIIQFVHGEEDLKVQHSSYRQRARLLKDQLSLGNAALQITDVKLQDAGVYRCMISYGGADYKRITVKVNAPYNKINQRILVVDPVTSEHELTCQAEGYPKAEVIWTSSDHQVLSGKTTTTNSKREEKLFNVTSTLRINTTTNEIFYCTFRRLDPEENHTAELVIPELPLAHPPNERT

Human INSR BioVendor = target: T10, Human INSR BioVendor (Homo sapiens, UniProt P06213-2); experiment: Octet, IgG KD, monovalent format, human INSR BioVendor
T10 construct: recombinant soluble protein used in Octet, monovalent format; Antigen of the column Octet IgG KD Human INSR BioVendor (M) Monovalent

[10] = target: T5, human PD-L1 protein (monomeric, soluble …); experiment: Biacore, IgG KD, monovalent format, human PD-L1-His
[11] = target: T1, human PD-L2 protein (monomeric, soluble …); experiment: Biacore, IgG KD, monovalent format, human PD-L2-His
Human PD-L2-Fc [12] = target: T4, Human PD-L2-Fc; experiment: Octet, IgG KD, avid format, human PD-L2-Fc
Human PD-L1-Fc [13] = target: T9, Human PD-L1-Fc; experiment: Octet, column hPD-L1 dimer; unit Molar from the legend
[14] = target: T5, human PD-L1 protein (monomeric, soluble …); experiment: Octet, IgG KD, monovalent format, human PD-L1-His
[15] = target: T1, human PD-L2 protein (monomeric, soluble …); experiment: Octet, IgG KD, monovalent format, human PD-L2-His

Kd [1] [nM]	Kd [2] [nM]	EC50 (read off the curve) [3] [nM]	EC50 [4] [µg/mL]	EC50 [5] [µg/mL]	EC50 [6] [µg/mL]	Kd (mPD-L2 dimer) [nM]	Kd (mPD-L1 dimer) [nM]	Kd (Human PD-L2-Fc [7]) [nM]	EC50 (read off the curve) [8] [nM]	Kd (Human PD-L1-Fc [9]) [nM]	binding result (Human INSR BioVendor)	Kd [10] [nM]	Kd [11] [nM]	Kd (Human PD-L2-Fc [12]) [nM]	Kd (Human PD-L1-Fc [13]) [nM]	Kd [14] [nM]	Kd [15] [nM]	Binder
7.62	1.9	~0.5	145	0.1	0.03	0.7	3.2	0.601	~1	1.28	no binding	3.76	0.727	0.601	1.28			B1
										1.27		8.09	0.175	0.377		14.2	1.02	B2
										1.22		37.7	1.24	0.597		20	2.84	B3
										1.52		2.76	0.508	0.426		6.23	1.6	B4
